Source: US20180111972A1 (Stanford University, published 2018)

Legend:
[1] = molecular target: T1, soluble VEGFR2 (Fc or His format not stated for the experiment) (human, UniProt P35968 20-764); assay: yeast surface display, flow cytometry dot plot: soluble receptor bound (FL1) against surface expression (FL2); receptor concentration not given
T1 construct: extracellular domain

[2] = molecular target: T2, human VEGFR on human umbilical vein endothelial cells (HUVECs) (human, UniProt P35968 20-1356); assay: flow cytometry on HUVECs, soluble ligand titrated 3 h at 4 C, anti-FLAG-PE
T2 construct: The phosphorylation blots on these cells detect VEGFR2
Experimental: (§1) To test binding to VEGFR, human umbilical vein endothelial cells (HUVECs) and murine angiosarcoma endothelial cells (SVR) were used.
(§2) Cell-binding assay. Varying concentrations of scPDGF, scVEGF, and PDGF/VEGF ligands were incubated with 25,000 PDGFR- or VEGFR-expressing cells in binding buffer (20 mM Tris pH 7.5 with 1 mM MgCl₂, 1 mM MnCl₂, 2 mM CaCl₂, 100 mM NaCl, and 1 mg/ml BSA) for 5 hr (BJ-5ta, NIH/3T3) or 3 hr (HUVEC, SVR) at 4° C. Cells were washed and pelleted, then incubated with 1:100 R-PE-conjugated anti-FLAG antibody (Prozyme) for 15 min on ice. Cells were washed, pelleted, and resuspended in binding buffer immediately before analysis by flow cytometry using BD Accuri C6. Flow cytometry data were analyzed using BD Accuri C6 software, and statistical analysis was performed using GraphPad Prism 6.

[3] = molecular target: T3, PDGFRβ-His (residues 1-314 of PDGFR-β with C-terminal hexahistidine tag) (human, UniProt P09619 33-314); assay: KinExA Kinetics Injection
T3 construct: range 1-314; Monovalent form, expressed in FreeStyle 293-F cells; also called PDGRβ-His; PDGFR-His
Experimental: (§3) Additionally, the kinetic parameter kₒₙ can be determined by using a “kinetics injection” experiment. A constant concentration of PDGF/VEGF ligand is injected with an equal volume of differing concentrations of PDGRβ-His or VEGFR2-His. The two solutions are allowed to mix briefly (several seconds) in the time required for the instrument to deliver the mixture to the detection bead column. The pre-equilibrium concentrations of free ligand is fit to the standard bimolecular rate equation to obtain kₒₙ.
(§4) Kinetic Exclusion Assay (KinExA). All experiments were performed on a KinExA 3200 instrument with siliconized flow cell (Sapidyne Instruments Inc). […] 30 μg of receptor was incubated in 1 ml of 50 mM sodium bicarbonate, 0.5 M sodium citrate buffer, pH 8.3, for 2 hr at room temperature with rocking. Beads were allowed to settle by gravity and liquid removed. Beads were blocked by incubating in 1 ml of 10 mg/ml BSA in 1 M Tris buffer, pH 8.0, for 1 hr at room temperature with rocking, and stored in blocking buffer at 4° C. for up to one week until use. Running buffer contained PBS with 10 mM imidazole and 0.02% sodium azide. Samples were prepared in running buffer with 1 mg/ml BSA. Binding reactions were prepared with a fixed concentration of PDGF/VEGF ligands and dilution series of PDGFR or VEGFR. Captured PDGF/VEGF ligands were detected using a Dylight 649-conjugated anti-FLAG antibody (Rockland) at 1:1000 dilution in sample buffer. Kinetic experiments were performed with the “Kinetics Injection” method defined in the KinExA software. Data were analyzed with KinExA Pro Software. The Kd was determined from a global fit of two concentration curves using the “n-curve analysis” tool and the titrant concentrations as reference. […] The kₒₙ was calculated as a fit of the pre-equilibrium free ligand concentrations to the bimolecular binding equation using the “Kinetics Injection” tool.

[4] = molecular target: T4, VEGFR2-His (residues 1-764 of VEGFR2, Ig-like domains 1-7, with hexahistidine tag) (human, UniProt P35968 20-764); assay: KinExA Kinetics Injection
T4 construct: range 1-764; Monomeric form, expressed in FreeStyle 293-F cells; also called VEGFR-His
Experimental: as §3, §4

[5] = molecular target: T2, human VEGFR on human umbilical vein …; assay: flow cytometry titration of the soluble FLAG-tagged protein on HUVECs, anti-FLAG detection
Experimental: as §1, §2

[6] = molecular target: T3, PDGFRβ-His (residues 1-314 of PDGFR-β …); assay: KinExA, equilibrium titration in solution, n-curve analysis
Experimental: (§5) For KinExA measurements, a constant amount of PDGF/VEGF ligand is titrated with differing concentrations of PDGRβ-His or VEGFR2-His. The solutions are incubated for an appropriate amount of time to allow the ligand-receptor binding reaction to reach equilibrium. The solution is then briefly exposed to a solid support containing immobilized PDGFR or VEGFR, which captures unbound ligand. The amount of ligand bound to the solid support is then detected using a fluorescently-labeled antibody. […] For each binding interaction measured, curves for two concentrations of the constant ligand are performed. By performing two experiments with fixed ligand concentrations above and below the Kd, and fitting both sets of data with a nonlinear regression analysis, a more accurate measurement for the affinity can be obtained.
(§6) Kinetic Exclusion Assay (KinExA). All experiments were performed on a KinExA 3200 instrument with siliconized flow cell (Sapidyne Instruments Inc). […] 30 μg of receptor was incubated in 1 ml of 50 mM sodium bicarbonate, 0.5 M sodium citrate buffer, pH 8.3, for 2 hr at room temperature with rocking. Beads were allowed to settle by gravity and liquid removed. Beads were blocked by incubating in 1 ml of 10 mg/ml BSA in 1 M Tris buffer, pH 8.0, for 1 hr at room temperature with rocking, and stored in blocking buffer at 4° C. for up to one week until use. Running buffer contained PBS with 10 mM imidazole and 0.02% sodium azide. Samples were prepared in running buffer with 1 mg/ml BSA. Binding reactions were prepared with a fixed concentration of PDGF/VEGF ligands and dilution series of PDGFR or VEGFR. Captured PDGF/VEGF ligands were detected using a Dylight 649-conjugated anti-FLAG antibody (Rockland) at 1:1000 dilution in sample buffer. Kinetic experiments were performed with the “Kinetics Injection” method defined in the KinExA software. Data were analyzed with KinExA Pro Software.

[7] = molecular target: T4, VEGFR2-His (residues 1-764 of VEGFR2, …); assay: as above
Experimental: as §5, §6

[8] = molecular target: T3, PDGFRβ-His (residues 1-314 of PDGFR-β …); assay: KinExA, calculated from Kd and kon
Experimental: (§7) By performing two experiments with fixed ligand concentrations above and below the Kd, and fitting both sets of data with a nonlinear regression analysis, a more accurate measurement for the affinity can be obtained.
as §3, §4

[9] = molecular target: T4, VEGFR2-His (residues 1-764 of VEGFR2, …); assay: KinExA, calculated from Kd and kon
Experimental: as §7, §3, §4

[10] = molecular target: T3, PDGFRβ-His (residues 1-314 of PDGFR-β …); assay: yeast surface display titration, flow cytometry
Experimental: (§8) Cells were incubated in large enough volumes to avoid ligand depletion and appropriate time to reach equilibrium. During the last hour of incubation, yeast were incubated with 1:250 dilution of chicken anti-c-Myc (Invitrogen) in PBSA. […] Yeast were washed, pelleted, and resuspended in PBSA immediately before analysis by flow cytometry using BD FACSCalibur or BD Accuri C6. Flow cytometry data were analyzed using FlowJo (v7.6.1 and v10, Treestar) or BD Accuri C6 software. Statistical analysis was performed using GraphPad Prism 6.

[11] = molecular target: T4, VEGFR2-His (residues 1-764 of VEGFR2, …); assay: yeast surface display titration, flow cytometry
Experimental: as §8

[12] = molecular target: T4, VEGFR2-His (residues 1-764 of VEGFR2, …); assay: yeast surface display, flow cytometry equilibrium titration of VEGFR2-His, normalized fluorescence
Experimental: as §8

[13] = molecular target: T3, PDGFRβ-His (residues 1-314 of PDGFR-β …); assay: yeast surface display, flow cytometry equilibrium titration of PDGFRβ-His (panel 'PDGFR-His'), normalized fluorescence
Experimental: as §8

[14] = molecular target: T1, soluble VEGFR2 (Fc or His format not …); assay: yeast surface display titration; table under the panel 'VEGFR binding', Fc or His form not given
[15] = molecular target: T4, VEGFR2-His (residues 1-764 of VEGFR2, …); assay: yeast surface display titration, flow cytometry; remark: listed apart in the source
Experimental: as §8

VEGFR2-Fc (R&D Systems) = molecular target: T5, VEGFR2-Fc (R&D Systems) (human, UniProt P35968 20-764); assay: yeast surface display, flow cytometry titration of VEGFR2-Fc
T5 construct: extracellular domain; Bought reagent; also called VEGFR-Fc; not shown: Fc part, detected with anti-human-IgG (Fc specific)
Experimental: as §8

T4 sequence (P35968 other isoform, or with tags, fused parts or gaps limits assumed, form in doubt): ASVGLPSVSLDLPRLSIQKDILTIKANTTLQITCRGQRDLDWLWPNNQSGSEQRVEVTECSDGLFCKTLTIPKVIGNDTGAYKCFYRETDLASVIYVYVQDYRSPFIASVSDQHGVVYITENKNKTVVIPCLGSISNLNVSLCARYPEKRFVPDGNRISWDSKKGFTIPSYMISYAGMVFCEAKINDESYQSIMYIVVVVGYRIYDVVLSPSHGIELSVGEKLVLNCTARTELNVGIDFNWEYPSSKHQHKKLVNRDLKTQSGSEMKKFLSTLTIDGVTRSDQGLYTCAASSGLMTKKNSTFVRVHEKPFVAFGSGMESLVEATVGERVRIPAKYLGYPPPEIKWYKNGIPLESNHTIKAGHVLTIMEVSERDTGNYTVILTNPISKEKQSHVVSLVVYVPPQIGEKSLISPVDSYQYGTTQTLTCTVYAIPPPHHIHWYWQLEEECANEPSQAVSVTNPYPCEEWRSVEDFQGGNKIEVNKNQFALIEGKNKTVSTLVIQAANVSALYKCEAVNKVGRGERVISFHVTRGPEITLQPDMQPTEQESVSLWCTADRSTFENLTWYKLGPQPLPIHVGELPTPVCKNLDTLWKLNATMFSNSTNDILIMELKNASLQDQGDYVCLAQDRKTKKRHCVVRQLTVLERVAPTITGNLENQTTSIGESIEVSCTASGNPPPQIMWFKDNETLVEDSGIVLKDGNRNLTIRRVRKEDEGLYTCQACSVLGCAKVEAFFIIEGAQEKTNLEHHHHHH
T1 sequence (P35968 20-764): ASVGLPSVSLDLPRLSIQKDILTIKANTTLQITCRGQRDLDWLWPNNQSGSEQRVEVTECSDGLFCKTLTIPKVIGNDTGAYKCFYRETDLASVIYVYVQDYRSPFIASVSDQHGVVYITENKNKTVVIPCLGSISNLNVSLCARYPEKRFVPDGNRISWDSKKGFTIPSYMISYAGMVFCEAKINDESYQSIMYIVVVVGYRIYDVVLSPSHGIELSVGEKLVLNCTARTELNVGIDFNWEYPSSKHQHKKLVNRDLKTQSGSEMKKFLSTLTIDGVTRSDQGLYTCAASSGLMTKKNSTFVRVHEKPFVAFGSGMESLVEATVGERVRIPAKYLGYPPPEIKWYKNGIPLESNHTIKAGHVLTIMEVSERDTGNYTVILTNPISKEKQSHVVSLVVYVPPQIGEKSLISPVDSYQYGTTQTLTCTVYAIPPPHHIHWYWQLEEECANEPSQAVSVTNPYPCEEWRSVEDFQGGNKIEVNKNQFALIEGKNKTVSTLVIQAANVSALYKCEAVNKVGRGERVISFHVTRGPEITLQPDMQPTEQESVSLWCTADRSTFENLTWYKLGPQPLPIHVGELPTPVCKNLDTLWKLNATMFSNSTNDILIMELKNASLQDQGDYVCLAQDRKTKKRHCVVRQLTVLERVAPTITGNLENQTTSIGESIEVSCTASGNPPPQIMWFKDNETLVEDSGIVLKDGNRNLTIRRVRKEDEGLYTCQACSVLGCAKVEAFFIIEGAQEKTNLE
T2 sequence (P35968 20-1356 limits assumed): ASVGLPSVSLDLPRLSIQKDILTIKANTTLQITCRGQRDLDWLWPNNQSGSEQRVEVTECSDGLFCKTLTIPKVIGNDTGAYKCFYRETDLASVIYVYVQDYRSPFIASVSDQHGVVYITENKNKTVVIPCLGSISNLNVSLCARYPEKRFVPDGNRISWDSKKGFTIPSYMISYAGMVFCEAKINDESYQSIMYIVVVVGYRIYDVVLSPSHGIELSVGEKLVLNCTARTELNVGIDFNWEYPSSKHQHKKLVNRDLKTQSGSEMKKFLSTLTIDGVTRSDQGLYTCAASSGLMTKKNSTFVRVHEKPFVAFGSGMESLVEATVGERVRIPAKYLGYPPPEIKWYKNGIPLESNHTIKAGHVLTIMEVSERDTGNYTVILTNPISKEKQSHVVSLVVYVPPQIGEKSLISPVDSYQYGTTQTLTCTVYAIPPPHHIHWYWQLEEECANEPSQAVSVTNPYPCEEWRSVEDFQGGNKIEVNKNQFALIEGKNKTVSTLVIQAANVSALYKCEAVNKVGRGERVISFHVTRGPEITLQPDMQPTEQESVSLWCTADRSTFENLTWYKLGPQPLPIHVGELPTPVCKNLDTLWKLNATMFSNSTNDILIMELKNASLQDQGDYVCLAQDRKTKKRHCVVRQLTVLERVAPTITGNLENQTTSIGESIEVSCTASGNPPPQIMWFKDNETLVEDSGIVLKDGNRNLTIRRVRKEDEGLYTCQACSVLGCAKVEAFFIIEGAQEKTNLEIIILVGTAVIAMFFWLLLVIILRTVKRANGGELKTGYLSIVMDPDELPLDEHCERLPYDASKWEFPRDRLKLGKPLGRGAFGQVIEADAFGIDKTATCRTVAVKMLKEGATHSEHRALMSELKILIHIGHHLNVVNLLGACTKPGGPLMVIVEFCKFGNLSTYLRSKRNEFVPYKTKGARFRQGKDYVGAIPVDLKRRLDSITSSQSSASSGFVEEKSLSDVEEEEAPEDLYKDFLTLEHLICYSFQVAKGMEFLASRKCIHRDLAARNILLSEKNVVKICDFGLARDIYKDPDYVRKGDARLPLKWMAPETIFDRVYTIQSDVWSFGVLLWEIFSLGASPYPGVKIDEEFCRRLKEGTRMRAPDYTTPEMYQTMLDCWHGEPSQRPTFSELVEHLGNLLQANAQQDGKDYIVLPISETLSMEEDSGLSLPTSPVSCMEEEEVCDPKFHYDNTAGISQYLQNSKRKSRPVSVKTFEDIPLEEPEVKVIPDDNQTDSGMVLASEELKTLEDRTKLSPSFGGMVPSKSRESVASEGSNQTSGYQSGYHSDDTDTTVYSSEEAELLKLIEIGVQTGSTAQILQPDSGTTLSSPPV
T5 sequence (P35968 20-764): as the sequence (P35968 20-764) above

B1: PV1 PDGF/VEGF hybrid construct, yeast-displayed (designed binder)
chain: IAEPAMIAECKTRETLVDIFQEYPDEIEYIFKPSCVPLMRCSGCCNNRNVQCRPTEESNITMQIMRIKPHQGQHIGEMSFLQHLACKCETVAAGSTSGSGKSSEGKGEVVKFMDVYQRSYCHPITEVFEISRRLIDRTNANFLVWPPCVEVQRCGGCCNDEGLECVPTQVQLRPVQVRKIEIVRKKPIFKKATVTLEDHNKCECRPKKD
binding result [1]: binds

B2: PV6 PDGF/VEGF chimera, soluble, N-terminal FLAG and C-terminal hexahistidine tags (designed binder)
chain: DYKDDDDKIAEPAMIAECHPIETLVDIFQEYPDEIEYIFKPSCVPLMRCGGCCNNRNVQCRPTEESNITMQIMRIKPHQGQHIGEMSFLQHNKCKCETVAAGSTSGSGKSSEGKGEVVKFMDVYQRSYCKTRTEVFEISRRLIDRTNANFLVWPPCVEVQRCSGCCNDEGLECVPTQVQLRPVQVRKIEIVRKKPIFKKATVTLEDHLACKCRPKKDHHHHHH
notes: Secreted from S. cerevisiae YVH10 and treated with Endo Hf; also called soluble PV6
Kd [2]: 11 nM
kon [3]: 2.2e+07 M⁻¹ s⁻¹
kon [4]: 240000 M⁻¹ s⁻¹
EC50 (read off the curve) [5]: ~10 nM
Kd [6]: 0.87 nM
Kd [7]: 38 nM
koff [8]: 0.019 s⁻¹
koff [9]: 0.0092 s⁻¹

B3: PVGS, yeast-displayed (designed binder)
chain: IAEPAMIAECHPIETLVDILQEYPDEIGYIFKPSCVPLMRCGGCCNNRNVQCRPTEESNITMQIMRIKPHRGQHIGEMSFLQHNKCRCETVAAGGGGSGGGGSGGGGSGGGGSEVVKFMDVYQRSYCKTRTEVFEISRRLIDATNANFLVWPPCVEVQRCSGCCNHEGLECVPTQVQLRPVQVRKIEFVRKKPIFKKATVTLEDHLACECRPKKD
Kd [10]: 0.25 nM
Kd [11]: 1.1 nM
EC50 (read off the curve) [12]: ~1 nM
EC50 (read off the curve) [13]: ~0.3 nM

B4: V4-22 (PV6 with F20L, E28G, Q71R, D160H), yeast-displayed (designed binder)
chain: IAEPAMIAECHPIETLVDILQEYPDEIGYIFKPSCVPLMRCGGCCNNRNVQCRPTEESNITMQIMRIKPHRGQHIGEMSFLQHNKCKCETVAAGSTSGSGKSSEGKGEVVKFMDVYQRSYCKTRTEVFEISRRLIDRTNANFLVWPPCVEVQRCSGCCNHEGLECVPTQVQLRPVQVRKIEIVRKKPIFKKATVTLEDHLACECRPKKD
notes: Variant from the Vshuf library
Kd [14]: 1.9 nM
Kd [15]: 1.3 nM

B5: V5-5, yeast-displayed variant from the Vshuf library (designed binder)
chain: IAEPAVIAECHPIETLVDILQEYPDEIGYIFKPSCVPLMRCGGCCNNRNVQCRPTEESNITMQIMRIKPHRGQHIGEMSFLQHNKCKCETVAAGSTSGSGKSSEGKGEVVKFMDVYQRSYCKTRTEVFEISRRLIDRTNANFLVWPPCVEVQRCSGCCNHEGLECVPTQVQLRPVQVRKIEIVRKKPIFKKATVTLEDHLACECRPKKV
binding result (VEGFR2-Fc (R&D Systems)): binds
